Measurements as given in PMC2808226 (Molecular Biology of the Cell, 2010).

B1: caveolin-3-c-myc (natural protein)
chain: MMTEEHTDLEARIIKDIHCKEIDLVNRDPKNINEDIVKVDFEDVIAEPEGTYSFDGVWKVSFTTFTVSKYWCYRLLSTLLGVPLALLWGFLFACISFCHIWAVVPCIKSYLIEIQCISHIYSLCIRTFCNPLFAALGQVCSNIKVVLRREG

Assays:
[1] = biological target: nicotinic acetylcholine receptor (mouse (endogenous in gastrocnemius muscle and in myotubes)) (UniProt P04756); assay: pull-down
nAChR-α-c-myc = nAChR-α-c-myc (UniProt P04756 21-457); assay: co-IP
Chain of nAChR-α-c-myc (P04756 21-457): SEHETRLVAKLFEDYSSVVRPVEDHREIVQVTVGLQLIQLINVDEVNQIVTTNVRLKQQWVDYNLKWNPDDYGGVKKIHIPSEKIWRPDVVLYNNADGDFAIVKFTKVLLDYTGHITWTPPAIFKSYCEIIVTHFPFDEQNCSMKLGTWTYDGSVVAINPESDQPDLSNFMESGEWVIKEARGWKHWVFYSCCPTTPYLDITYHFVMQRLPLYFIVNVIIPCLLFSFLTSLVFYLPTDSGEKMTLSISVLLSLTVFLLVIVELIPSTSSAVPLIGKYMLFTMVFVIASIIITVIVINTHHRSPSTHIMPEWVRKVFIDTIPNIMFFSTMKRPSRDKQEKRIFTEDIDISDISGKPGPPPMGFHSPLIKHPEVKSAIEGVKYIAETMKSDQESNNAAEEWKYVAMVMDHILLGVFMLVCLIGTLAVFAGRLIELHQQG

Chain of nicotinic acetylcholine receptor (mouse (endogenous in gastrocnemius muscle and in myotubes)) (P04756 whole entry, looked up): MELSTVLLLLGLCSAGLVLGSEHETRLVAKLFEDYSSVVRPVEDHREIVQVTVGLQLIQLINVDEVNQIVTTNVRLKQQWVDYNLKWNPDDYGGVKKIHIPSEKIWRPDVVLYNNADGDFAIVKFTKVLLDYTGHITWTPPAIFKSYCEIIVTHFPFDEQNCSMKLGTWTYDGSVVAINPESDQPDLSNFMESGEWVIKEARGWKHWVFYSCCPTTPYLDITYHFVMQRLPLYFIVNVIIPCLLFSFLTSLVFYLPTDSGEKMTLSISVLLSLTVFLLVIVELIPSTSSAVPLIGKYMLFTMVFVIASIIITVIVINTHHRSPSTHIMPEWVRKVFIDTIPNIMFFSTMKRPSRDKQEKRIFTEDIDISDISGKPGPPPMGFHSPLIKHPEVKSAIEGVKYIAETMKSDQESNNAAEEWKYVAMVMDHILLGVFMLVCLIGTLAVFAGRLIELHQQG

Molecule	percent of caveolin-3 that interacts with the nAChR, after agrin treatment [1]	percent of caveolin-3 that interacts with the nAChR, resting conditions [1]	stoichiometry N (nAChR-α-c-myc)
caveolin-3 (from UniProt P51637 1-151) (natural protein)	5%	–	–
B1	–	0.25%	~14 caveolin-3 per nAChR
